Assay results taken from patent publication US6416758B1 (Board of Regents, The University of Texax System, priority 1999, dated 2002).

What was measured:
[1] = Blood clearance of radioiodinated 2C3-GUS; assay type: in vivo, mouse; details: 125I-labelled, intravenous injection into mice
Method: 2C3-GUS was radioiodinated with ^125I to a specific activity of 5×10^6 cpm/μg. After intravenous injection into mice, the radioiodinated 2C3-GUS cleared from the blood with a t½α of about 6 hours and a t 1/2β of about 25 hours.

[2] = tested on: human NCI-H358 NSCLC tumors; assay: In vivo localization of 2C3-GUS; set-up: species or system mouse; details: SCID mice bearing s.c. NCI-H358
GUS enzymatic activity = assay type: biochemical
Source text: The 6-His GUS was pure based upon SDS-PAGE, where it ran as a single band of 75 kDa band. On gel filtration columns, the 6-His GUS runs as a tetramer of about 300 kDa.

[3] = target: T1, denatured VEGF121 and VEGF165 (Homo sapiens, UniProt P15692); assay: Western blot analysis; assay type: binding; details: reducing and non-reducing conditions
T1 sequence (P15692 27-191 isoform P15692-4): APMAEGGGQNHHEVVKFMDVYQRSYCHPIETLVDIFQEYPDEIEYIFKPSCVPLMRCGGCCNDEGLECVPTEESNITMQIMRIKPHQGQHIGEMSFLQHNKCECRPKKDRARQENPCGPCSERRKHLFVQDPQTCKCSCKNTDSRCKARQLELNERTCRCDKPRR
Method: The nitrocellulose membrane was blocked using Sea-Block PP82-41 (East Coast Biologics, Berwick, Me.), and probed with primary antibodies using a mini-blotter apparatus (Immunetics, Cambridge, Mass.). The membranes were developed after incubation with the appropriate peroxidase-conjugated secondary antibody by ECL enhanced chemiluminescence.
Western blot analyses of anti-VEGF antibodies were conducted by separating VEGF165 in the presence of 5% FCS using SDS-PAGE on a 12% gel and analyzing by a standard western blotting protocol using ECL detection. The primary antibodies were incubated with the nitrocellulose membrane using a multi-lane mini-blotter apparatus.

HT1080 fibrosarcoma = assay: Treatment of established HT1080 xenografts; assay type: in vivo, mouse; details: 100 μg i.p. every other day
Method: (§1) FIG. 5A and FIG. 5B. […] Treatments (T) were 100 μg of the IgG given i.p., except for the initial treatment that consisted of 500 μg of the IgG given i.v. Mean tumor volume along with the SEM is shown. At the end of the study (day 116), the mice were sacrificed and the tumors dissected out and weighed. […] The mice were treated every other day as indicated (T). […] Mean tumor volume along with the SE is shown.
(§2) Male nu/nu mice bearing subcutaneous NCI-H358 tumors or HT1080 fibrosarcoma 200-400 mm^3 in size were injected i.p. with test or control antibodies. The NCI-H358 bearing mice were treated with 100 μg of antibodies per injection three times a week during the first week and twice a week during the second and third week. The mice were then switched to 50 μg per injection every five days. The HT1080 bearing mice were treated with 100 μg of the indicated antibody or saline every other day throughout the duration of the study. In both studies, mice were sacrificed when their tumors reached 2500 mm^3 size or earlier if tumors began to ulcerate.

[4] = tested on: VEGFR2 (KDR/Flk-1; sFlk-1); assay: ELISA, VEGF binding to VEGFR2-coated wells; set-up: species or system mouse
Method: (§3) FIG. 2. […] The plate was then incubated with rabbit anti-VEGF (A-20, Santa Cruz Biotechnology, Inc.) at 1 μg/ml and developed using a peroxidase conjugated goat anti-rabbit antibody. Assays were performed in triplicate. Mean percent binding in the absence of antibody is shown, together with the standard deviation.
(§4) The assay was also performed by coating wells of a microtiter plate with either control or test IgG.

[5] = tested on: NCI-H358 NSCLC and HT29 colon adenocarcinoma xenografts and normal organs; assay: In vivo localization to human tumor xenografts in mice
Method: Tumors were grown subcutaneously in immunocompromised mice (NCI-H358 NSCLC in nu/nu mice and HT29 colon adenocarcinoma in SCID mice) until the tumnor volume was approximately 1 cm^3. 100 μg of unlabeled antibody for studies using SCID mice, or 100 μg of biotinylated antibody for studies using nude mice, was injected intravenously via a tail vein. Twenty four hours later, the mice were anesthetized, perfused with PBS, and tumnor and organs including heart, lungs, liver, kidneys, intestines and spleen were collected and snap frozen in liquid nitrogen.
The tumor and organs from each mouse were sectioned on a cryostat and stained for antibody immunohistochemically as above, with the exception that sections from the nude mice were developed using peroxidase labeled streptavidin-biotin complex (Dako, Carpinteria, Calif.) and the sections from the SCID mice were developed using two peroxidase-conjugated secondary antibodies, a goat anti-mouse IgG+IgM followed by a rabbit anti-goat IgG.
100 μg of GV39M and 3E7 or isotype-matched control IgG were injected into SCID mice bearing HT29 human colonic adenocarcinomas. Twenty-four hours later, the mice were sacrificed, exsanguinated and the tumors and tissues were removed. Frozen sections of the tumors and tissues were analyzed immunohistochemically to determine the binding and distribution of the antibodies (Table 4).

VEGFR1 (Flt-1/Fc) = assay: ELISA, VEGF binding to VEGFR1-coated wells; details: Table 5
Method: as §3, §4

A673 rhabdomyosarcoma [6] = assay: Growth inhibition of newly-implanted A673 xenografts; assay type: in vivo, mouse; details: 100 μg i.p. 2 times per wk from day 1, nu/nu mice
Method: (§5) FIG. 3A and FIG. 3B. […] FIG. 3A: 1×10^7 NCI-H358 NSCLC cells were injected subcutaneously into nu/nu mice on day 0. FIG. 3B: 5×10^6 A673 rhabdomyosarcoma cells were injected subcutaneously into nu/nu mice on day 0. Mice were injected i.p. with the indicated IgG on day 1 and 2 times/week thereafter. […] Tumors were measured 2-3 times per week. Mean and standard error is shown for the duration of the study in FIG. 3A, while data for the last day of the study (day 26) is shown in FIG. 3B.
(§6) Nu/nu mice were injected subcutaneously with either 1×10^7 NCI-H358 NSCLC cells or 5×10^6 A673 rhabdomyosarcoma cells on day 0. […] The tumors were then measured twice per wk for a period of approximately six wk for the NCI-H358 bearing mice and four wk for the A673 bearing mice. Tumor volume was calculated according to the formula: volume=L×W×H, where L=length, W=width, H=height.

[7] = tested on: LS174T colon adenocarcinoma; assay: Treatment of established LS174T tumors; assay type: in vivo, mouse; details: mice with established tumors
NCI-H358 NSCLC tumors = assay: Treatment of established NCI-H358 xenografts; assay type: in vivo, mouse
Method: FIG. 4. […] Mean tumor volume along with the SEM over 116 days is shown.
as §1, §2
Doses were 50-100 μg every 3-5 days. […] In addition to measuring mean tumor volume (FIG. 4), photographs of the mice from each treatment group were also taken to show the differences in tumor size and appearance at the end of the study.

NCI-H358 NSCLC = assay: Growth inhibition of newly-implanted NCI-H358 xenografts; assay type: in vivo, mouse; details: 100 μg i.p. 2 times per wk from day 1, nu/nu mice
Method: as §5, §6

A673 rhabdomyosarcoma [8] = assay: Treatment of established A673 tumors; assay type: in vivo, mouse; details: mice with established tumors
[9] = tested on: VEGF-mediated growth of ABAE cells; assay: Endothelial cell growth assay (MTS); assay type: cell-based, bovine; details: Table 5
Method: ABAE cells were grown in the presence of the various indicated antibodies and 0.5 nM VEGF. Growth after 4 days was determined colorimetrically by the enzymatic conversion of MTS (Owen's reagent) to a yellow formazan. […] Background was determined by growing cells without VEGF or antibody and was subtracted from the control and sample wells.
Adult bovine aortic endothelial (ABAE) cells were plated into 96-well tissue culture plates at 1500 cells/well and grown in the presence of 0.5 nM human VEGF with the addition of the various sample and control antibodies. Control wells received media with or without VEGF.
After 4 days of incubation, the cells were quantified by an MTS (3-(4,5-dimethylthiazol-2-yl)-5-(3-carboxylmethoxyphenyl)-2-(4-sulfophenyl)-2H-tetrazolium, inner salt) conversion assay, where MTS conversion to a formazan is proportional to cell number and can be followed by absorbance at 490 nm (Cell Titer 96 AQueous One Solution Cell Proliferation Assay, Promega, Madison, Wis.). The assay was performed according to the manufacturer's instructions.
Cell growth was estimated by subtracting the MTS conversion in cultures to which VEGF was not added. Results were expressed as a percentage of the MTS conversion in control cultures to which only VEGF was added (Buttke et al., 1993).

[10] = target: T2, VEGF alone or VEGF associated with sFlk-1 (VEGF:Flk-1) (Homo sapiens, UniProt P15692); assay: Indirect and capture ELISA, VEGF alone vs VEGF associated with sFlk-1; assay type: binding
T2 sequence (P15692 27-191 isoform P15692-4): T1 sequence (P15692 27-191 isoform P15692-4)
Method: The Flk-1/SEAP protein was produced and purified as described by Tessler et al. (1994). Basically, the extracellular domain of Flk-1(sFlk-1) was produced in Spodoptera frugiperda (Sf9) cells and purified by immunoaffinity techniques utilizing a monoclonal anti-Flk-1 antibody (1A8). sFlk-1 was then biotinylated and bound on avidin-coated plates.
The reactivity was determined as described above for the initial screening.
A capture ELISA was also developed. In the capture ELISA, microtiter plates were coated overnight at 4° C. with 100 ng of the indicated antibody. […] Streptavidin conjugated to peroxidase (Kirkegaard & Perry Laboratories, Inc.), diluted 1:2000, was used as a second layer and developed.

[11] = 24 hours after i.v. antibody, 2C3 in NCI-H358/nu/nu, 3E7 and GV39M in HT29/SCID mice

In the case of 2C3-GUS [Clone 2C3-GUS], the “t 1/2β, clearance from the blood” value [1] is reported as “about 25 hours”, the “t½α, clearance from the blood” value [1] is reported as “about 6 hours” and the “Localization in tumor after i.v. injection” value [2] is reported as “specifically localized to tumor vasculature and surrounding tumor stroma”. For the same substance, the “Staining of normal tissues after i.v. injection” value [2] was “unstained” and the “Enzymatic activity of GUS” value (GUS enzymatic activity) was “retained enzymatic activity”.
For “2C3: anti-VEGF monoclonal antibody, IgG2a,k, hybridoma ATCC PTA 1595; blocks VEGF binding to VEGFR2 but not VEGFR1 [Clone 2C3]”, the “Reactivity with VEGF on western blots” value [3] was “react”, the “Effect on growth of HT1080 tumors” value (HT1080 fibrosarcoma) was “arrested the growth of the tumors” and the “Blocking of VEGF binding to VEGFR2 in ELISA” value ([4]; 100-1000 fold excess) was “blocked”. The “Reduction in VEGF binding to VEGFR2” value ([4]; 100 fold molar excess over VEGF) was “about 74%”, the “VEGF bound to VEGFR2-coated wells, % of the amount bound in the absence of antibody” value ([4]; 1000-fold molar excess over VEGF (1 nM VEGF)) was ~19% and the “Reduction in VEGF binding to VEGFR2” value ([4]; 1000 fold molar excess over VEGF) was “about 81%”. For the same substance, the “Blocks VEGF from binding to VEGFR2” value ([4]; Table 5) was “Yes”, the “Immunohistochemical Reactivity, Heart” value [5, 11] was “−” and the “Immunohistochemical Reactivity, Intestine” value [5, 11] was “−”. The “Immunohistochemical Reactivity, Kidney” value [5, 11] was “−”, the “Immunohistochemical Reactivity, Liver” value [5, 11] was “−” and the “Immunohistochemical Reactivity, Lung” value [5, 11] was “−”. For the same substance, the “Immunohistochemical Reactivity, Spleen” value [5, 11] was “−”, the “Immunohistochemical Reactivity, Tumor” value [5, 11] was 3+ and the “In vivo tumor localization pattern” value ([5]; CT connective tissue, BV blood vessels) was “Moderate to strong”. The “Localization in the HT29 human tumor model” value ([5]; HT29) was “localized strongly to the connective tissue”, the “In vivo normal mouse tissue localization” value ([5]; mouse, in vivo) was “None detectable” and the “Structure specifically bound after i.v. injection” value ([5]; mouse, in vivo, iv) was “tumor stroma”. The “Blocks VEGF from binding to VEGFR1” value (VEGFR1 (Flt-1/Fc)) was “No”, the “Final tumor volume, A673 rhabdomyosarcoma” value (A673 rhabdomyosarcoma [6]) was “approximately 150 mm^3” and the “Effect on growth of established LS174T tumors” value [7] was “significantly slowed the growth”. For the same substance, the “Mean tumor volume after approximately 14 wk of treatment” value (NCI-H358 NSCLC tumors; FIG. 5A study, 100 μg, at start 480 mm^3 (2C3), 428 mm^3 (3E7)) was 84 mm^3, the “Decrease in mean tumor volume” value (NCI-H358 NSCLC tumors; FIG. 5A study, approximately 14 wk) was “approximately 80%” and the “Mean tumor weight at the end of the study” value (NCI-H358 NSCLC tumors; FIG. 5A study, day 116) was 0.054 g. The “Mean tumor volume at the end of the study, % of the initial mean tumor volume” value (NCI-H358 NSCLC tumors; established tumors 300-450 mm^3, 50-100 μg i.p. every 3-5 days, approximately 10 weeks of treatment) was 30%, the “Final tumor volume, NCI-H358 NSCLC” value (NCI-H358 NSCLC) was “approximately 150 mm^3” and the “Effect on growth of established A673 tumors” value (A673 rhabdomyosarcoma [8]) was “significantly slowed the growth”. For the same substance, the “Blocks VEGF-induced proliferation” value [9] was “Yes” and the “Predominant Reactivity” value [10] was “VEGF”.
